Measurements: patent US20180305405A1
Where no end group is shown, it is not given here.

Key:
[1] = molecular target: αvβ3 integrin receptor expressed on mouse H5V endothelial cells (mouse) (UniProt P43406); experiment: H5V cell binding assay at 4 °C, time-resolved fluorometry; non-specific binding defined with 1 µM RGD-4C; highest ligand concentration
[2] = molecular target: αvβ3 integrin receptor expressed on mouse H5V endothelial cells (mouse) (UniProt P43406); experiment: H5V cell binding assay at 4 °C, time-resolved fluorometry; non-specific binding defined with 1 µM RGD-4C; low ligand concentrations
[3] = molecular target: αvβ3 integrin receptor expressed on mouse H5V endothelial cells (mouse) (UniProt P43406); experiment: Scatchard analysis of Eu-RGD-4C binding to H5V cells at 4 °C, time-resolved fluorometry
[4] = molecular target: αvβ3 integrin receptor expressed on mouse H5V endothelial cells (mouse) (UniProt P43406); experiment: cell-based or functional assay

Chain of αvβ3 integrin receptor expressed on mouse H5V endothelial cells (mouse) (P43406 31-1044, chain 1 of 2): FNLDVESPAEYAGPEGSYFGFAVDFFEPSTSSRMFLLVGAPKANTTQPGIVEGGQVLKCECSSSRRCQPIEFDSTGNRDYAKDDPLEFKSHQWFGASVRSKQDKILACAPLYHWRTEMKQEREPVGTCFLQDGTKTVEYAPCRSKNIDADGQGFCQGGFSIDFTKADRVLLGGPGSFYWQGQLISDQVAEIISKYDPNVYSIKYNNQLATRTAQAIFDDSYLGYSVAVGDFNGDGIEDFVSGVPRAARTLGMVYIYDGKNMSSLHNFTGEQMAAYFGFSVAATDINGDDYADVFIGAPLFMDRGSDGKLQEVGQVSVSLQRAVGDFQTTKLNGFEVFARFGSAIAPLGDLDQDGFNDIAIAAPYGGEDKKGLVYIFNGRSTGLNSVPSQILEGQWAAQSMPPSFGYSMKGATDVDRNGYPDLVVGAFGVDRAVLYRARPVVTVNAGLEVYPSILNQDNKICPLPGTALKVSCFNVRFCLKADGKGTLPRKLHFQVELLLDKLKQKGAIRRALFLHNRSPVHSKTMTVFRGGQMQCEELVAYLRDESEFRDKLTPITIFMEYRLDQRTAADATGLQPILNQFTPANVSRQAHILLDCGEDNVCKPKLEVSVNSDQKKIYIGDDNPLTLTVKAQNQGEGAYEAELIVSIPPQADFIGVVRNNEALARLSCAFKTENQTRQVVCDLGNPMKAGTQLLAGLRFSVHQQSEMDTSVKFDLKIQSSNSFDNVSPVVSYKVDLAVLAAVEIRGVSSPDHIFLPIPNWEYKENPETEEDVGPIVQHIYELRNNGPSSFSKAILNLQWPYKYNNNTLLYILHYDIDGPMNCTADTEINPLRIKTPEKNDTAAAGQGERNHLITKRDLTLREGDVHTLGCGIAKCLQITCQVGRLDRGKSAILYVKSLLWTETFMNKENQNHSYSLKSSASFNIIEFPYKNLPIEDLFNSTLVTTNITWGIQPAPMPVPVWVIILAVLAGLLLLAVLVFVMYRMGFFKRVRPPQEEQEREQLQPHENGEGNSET
Chain of αvβ3 integrin receptor expressed on mouse H5V endothelial cells (mouse) (O54890 26-787, chain 2 of 2, further chain): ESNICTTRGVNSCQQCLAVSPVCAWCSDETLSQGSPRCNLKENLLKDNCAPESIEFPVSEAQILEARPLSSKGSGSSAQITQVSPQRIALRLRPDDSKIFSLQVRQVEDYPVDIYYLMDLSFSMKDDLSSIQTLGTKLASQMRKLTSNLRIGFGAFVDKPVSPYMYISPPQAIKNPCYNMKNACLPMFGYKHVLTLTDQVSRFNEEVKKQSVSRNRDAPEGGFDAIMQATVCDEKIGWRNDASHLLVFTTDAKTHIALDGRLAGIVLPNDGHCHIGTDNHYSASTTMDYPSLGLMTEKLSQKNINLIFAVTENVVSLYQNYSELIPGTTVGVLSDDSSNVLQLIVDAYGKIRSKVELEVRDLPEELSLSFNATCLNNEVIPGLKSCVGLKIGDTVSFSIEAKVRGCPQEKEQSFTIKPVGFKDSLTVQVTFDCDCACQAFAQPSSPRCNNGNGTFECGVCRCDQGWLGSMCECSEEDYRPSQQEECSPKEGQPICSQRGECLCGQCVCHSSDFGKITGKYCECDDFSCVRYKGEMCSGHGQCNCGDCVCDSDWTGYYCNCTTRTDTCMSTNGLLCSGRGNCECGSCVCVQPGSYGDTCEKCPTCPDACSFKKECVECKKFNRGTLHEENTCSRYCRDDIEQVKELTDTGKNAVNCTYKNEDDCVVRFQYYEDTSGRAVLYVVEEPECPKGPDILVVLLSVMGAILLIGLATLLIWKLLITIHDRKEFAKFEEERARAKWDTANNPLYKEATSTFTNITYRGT

| ratio of total binding to non-specific binding [1] | ratio of total binding to non-specific binding [2] | Kd [3] [nM] | H5V endothelial cell detachment (rounded cells) in cell-rounding assay, 100 µM RGD-4C [4] [%] | Binder |
| --- | --- | --- | --- | --- |
| 4 | 1 | 37.2 to 41.3 | – | CDCRGDCFC-NH2 (disulfide (positions not given here); also: two disulfides among four Cys, pairing not given here, isothiocyanatophenyl-DTPA-Eu conjugated, site not given here) [Eu-labeled RGD-4C (isothiocyanatophenyl-DTPA-Eu-RGD-4C)] |
| – | – | – | 99 | H-CDCRGDCFC-NH2 (disulfide (positions not given here); also: two disulfides, pairing not given here) [cyclic nonapeptide RGD-4C] |
